Results from PMC7322011.

Experiment: plasma membrane level, fixed-cell imaging
Conditions: glycan lost; control: wild type

B1: peripheral myelin protein 22 (PMP22): N41Q (protein)
parent chain: MLLLLLSIIVLHVAVLVLLFVSTIVSQWIVGNGHATDLWQNCSTSSSGNVHHCFSSSPNEWLQSVQATMILSIIFSILSLFLFFCQLFTLTKGGRFYITGIFQILAGLCVMSAAAIYTVRHPEWHLNSDYSYGFAYILAWVAFPLALLSGVIYVILRKRE
localisation_or_trafficking: increases
